B1: 1022T8 TCR (TCR, V domains shown)
V domain 1: GDSVTQMEGPVTLSEEAFLTINCTYTATGYPSLFWYVQYPGEGLQLLLKATKADDKGSNKGFEATYRKETTSFHLEKGSVQVSDSAVYFCALTVGGSYIPTFGRGTSLIVHP
V domain 2: DTEVTQTPKHLVMGMTNKKSLKCEQHMGHRAMYWYKQKAKKPPELMFVYSYEKLSINESVPSRFSPECPNSSLLNLHLHALQPEDSALYLCASSQGGQGWRETQYFGPGTRLLVLE

Assays:
recombinant HLA-A*03:01 = molecular target: T1, recombinant HLA-A*03:01 (human); assay: differential scanning fluorimetry of peptide/HLA-A*03:01, two technical replicates
T1 construct: MHC class I molecule used in differential scanning fluorimetry and crystallography. 'Recombinant' is printed only for the crystal structures; also called HLA-A*03:01 molecule
Text: Experiments included two technical replicates for each group. […] It measured the change in fluorescent signal of a dye that binds preferentially to hydrophobic resides that are exposed as an unstable protein unfolds.

[1] = molecular target: P9 peptide … pulsed on HLA-A*03:01 cells (human, UniProt A*03:01); assay: cell-based or functional assay
[2] = molecular target: P8 peptide … pulsed on HLA-A*03:01 cells (human, UniProt A*03:01); assay: cell-based or functional assay
[3] = molecular target: P4 peptide … pulsed on HLA-A*03:01 cells (human, UniProt A*03:01); assay: cell-based or functional assay
[4] = molecular target: P2 peptide … pulsed on HLA-A*03:01 cells (human, UniProt A*03:01); assay: cell-based or functional assay
[5] = molecular target: P6 peptide … pulsed on HLA-A*03:01 cells (human, UniProt A*03:01); assay: cell-based or functional assay
[6] = molecular target: P5 peptide … pulsed on HLA-A*03:01 cells (human, UniProt A*03:01); assay: cell-based or functional assay
[7] = molecular target: P7 peptide … pulsed on HLA-A*03:01 cells (human, UniProt A*03:01); assay: cell-based or functional assay
[8] = molecular target: P3 peptide … pulsed on HLA-A*03:01 cells (human, UniProt A*03:01); assay: cell-based or functional assay

Binder | melting temperature (recombinant HLA-A*03:01) | loss in function against the unmodified mutated 9-mer [1] | loss in function against the unmodified mutated 9-mer [2] | loss in function against the unmodified mutated 9-mer [3] | loss in function against the unmodified mutated 9-mer [4] | loss in function against the unmodified mutated 9-mer [5] | loss in function against the unmodified mutated 9-mer [6] | loss in function against the unmodified mutated 9-mer [7] | loss in function against the unmodified mutated 9-mer [8]
AHHGGWTTK (also called WT peptide) [wildtype PIK3CA minimal peptide AHHGGWTTK] | 36 degrees | – | – | – | – | – | – | – | –
B1 | – | > 50 % loss in function | > 50 % loss in function | > 50 % loss in function | > 50 % loss in function | > 50 % loss in function | > 50 % loss in function | > 50 % loss in function | > 50 % loss in function

— patent US20260139026A1 (Memorial Sloan Kettering, published 2026)
